Results published in patent publication US20170096460.

Legend:
ZFP 46025 (synthetic) = experiment: cell_activity; conditions: AAV9 in mouse striatum, 5 weeks, qRT-PCR
ZFP 45643 (synthetic) = experiment: cell_activity; conditions: AAV9 in mouse striatum, 5 weeks, qRT-PCR; 70% at 12 weeks

mutant Htt allele expanded CAG repeat (Q50, 48 CAGs)
activity (ZFP 46025 (synthetic)): 74 % repression
activity (ZFP 45643 (synthetic)): 79 % repression
